Key:
Mouse ANG2 = molecular target: T1, Mouse ANG2 (mouse, UniProt O35608 19-496, limits assumed); experiment: SPR, Biacore T200, antibody captured on Protein G chip
T1 sequence (looked up): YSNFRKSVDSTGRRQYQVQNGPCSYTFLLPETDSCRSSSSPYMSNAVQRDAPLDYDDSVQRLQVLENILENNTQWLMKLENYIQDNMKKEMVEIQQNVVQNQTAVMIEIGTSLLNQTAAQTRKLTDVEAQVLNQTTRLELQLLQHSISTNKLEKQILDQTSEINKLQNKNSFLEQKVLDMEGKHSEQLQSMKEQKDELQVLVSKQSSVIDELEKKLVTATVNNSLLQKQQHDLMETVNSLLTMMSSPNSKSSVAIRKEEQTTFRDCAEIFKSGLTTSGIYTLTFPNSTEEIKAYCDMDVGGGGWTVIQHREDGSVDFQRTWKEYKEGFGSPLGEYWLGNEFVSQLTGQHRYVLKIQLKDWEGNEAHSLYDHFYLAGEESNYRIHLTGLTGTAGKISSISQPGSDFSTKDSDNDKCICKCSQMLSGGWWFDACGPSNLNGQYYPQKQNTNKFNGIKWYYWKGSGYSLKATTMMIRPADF
Protocol: (§1) The antibody was diluted to 1 μg/mL and was captured onto channel 2 for 30 s, and channel 1 was the blank control channel. The gradient-diluted Human ANG2, Rhesus ANG2, Rabbit ANG2, Rat ANG2 and Mouse ANG2 were sequentially injected into channels 1 and 2 of the chip, from low to high concentrations (0-32 nM), at a flow rate of 30 μL/min, with one concentration per cycle, and with 180 s association time and 1200 s dissociation time at 25° C. Finally, the chip was regenerated using Glycine pH 1.5 at 30 μL/min for 30 s. The affinity assay was repeated three times.

Rat ANG2 = molecular target: T2, Rat ANG2 (rat, UniProt O35462 19-496, limits assumed); experiment: as above
T2 sequence (looked up): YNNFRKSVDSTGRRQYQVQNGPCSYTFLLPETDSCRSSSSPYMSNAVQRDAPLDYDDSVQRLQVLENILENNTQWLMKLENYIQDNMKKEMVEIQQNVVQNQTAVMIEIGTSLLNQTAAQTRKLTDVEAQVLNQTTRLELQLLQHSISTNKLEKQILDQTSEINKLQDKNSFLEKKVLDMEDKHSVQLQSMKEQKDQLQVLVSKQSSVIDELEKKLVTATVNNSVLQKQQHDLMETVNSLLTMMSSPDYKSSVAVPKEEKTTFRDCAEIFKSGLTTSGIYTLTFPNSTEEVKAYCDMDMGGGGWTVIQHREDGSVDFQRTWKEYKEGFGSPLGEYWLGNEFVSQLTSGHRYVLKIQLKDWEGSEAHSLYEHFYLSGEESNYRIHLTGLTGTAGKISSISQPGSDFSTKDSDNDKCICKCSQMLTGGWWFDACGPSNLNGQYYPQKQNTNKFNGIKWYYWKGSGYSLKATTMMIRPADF
Protocol: as §1

human Ang2 = molecular target: T3, human Ang2 (human, UniProt O15123 19-496, limits assumed); experiment: ForteBio BLI, antibody on AHQ sensor, 100 nM antigen, 1:1 model
T3 construct: also called hAng2; h Ang2
T3 sequence: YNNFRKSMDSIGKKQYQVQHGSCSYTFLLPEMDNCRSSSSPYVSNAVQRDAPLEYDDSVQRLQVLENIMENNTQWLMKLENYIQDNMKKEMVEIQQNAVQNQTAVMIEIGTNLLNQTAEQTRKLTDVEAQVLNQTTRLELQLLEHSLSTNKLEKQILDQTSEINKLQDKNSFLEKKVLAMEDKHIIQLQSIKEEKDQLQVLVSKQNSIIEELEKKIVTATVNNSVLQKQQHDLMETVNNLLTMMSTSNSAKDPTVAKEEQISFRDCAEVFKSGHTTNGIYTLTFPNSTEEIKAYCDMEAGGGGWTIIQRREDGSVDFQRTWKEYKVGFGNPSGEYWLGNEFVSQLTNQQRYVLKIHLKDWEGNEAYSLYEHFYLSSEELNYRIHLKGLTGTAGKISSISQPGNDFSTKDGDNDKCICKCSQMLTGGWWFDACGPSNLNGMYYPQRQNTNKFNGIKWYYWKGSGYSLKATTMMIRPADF
Protocol: The equilibrium dissociation constants (KD) of the above exemplary antibodies of the present invention binding to human Ang2 (h Ang2), cynomolgus monkey Ang2 (cAng2), murine Ang2 (mAng2), and human Ang1 (hAng1) were determined using the biological optical interferometry (ForteBio) assay.
The ForteBio affinity assay was performed according to the existing method (Estep, P et al., High throughput solution-based measurement of antibody-antigen affinity and epitope binning. MAbs, 2013.5 (2): p. 270-8). Briefly, the sensor was equilibrated in the assay buffer off-line for 30 min, followed by on-line detection for 60 s to establish the baseline. Then the purified antibodies obtained as described above were loaded on-line onto an AHQ sensor (ForteBio) for ForteBio affinity assay. The sensors with loaded antibodies were exposed to 100 nM of hAng2, cAng2, mAng2, and hAng1 antigens for 5 min, and then were transferred into the assay buffer for dissociation for 5 min to determine the dissociation rate. Kinetic analysis was performed using a 1:1 binding model.

- binding result (Mouse ANG2): no binding (tested: 0-32 nM)
- binding result (Rat ANG2): no binding (tested: 0-32 nM)
- Kd (human Ang2): 1.25 nM
B1: humanized antibody hz81H10.4 (antibody, human IgG1, kappa, V domains shown)
VH: EVQLVESGGGLVKPGGSLRLSCAASGFTFSNYWMNWVRQAPGKGLEWVAEIRLKSNNYATHYAESVKGRFTISRDVSKNTVYLQMNSLKTEDTAVYYCTDTAPFAYWGQGTLVTVSS
VL: DIQMTQSPSSLSASVGDRVTITCKASQDVGTDVAWYQQKPGKAPKLLIYWASTRHTGVPSRFSGSGSGTDFTLTISSLQPEDFATYYCQQYSSYPLTFGGGTKVEIKR
notes: also called IBI335

From patent publication US20240239881A1 (Innovent, published 2024)
